The source of these data is patent US20220402995A1 (TOSOH, published 2022).

Where a chain is given by its changes, count along the chain named.

Test [1] deals with T1, AAV2-EGFP (AAV vector of serotype 2 carrying an EGFP gene) (AAV2, UniProt P03135 1-735; P03135 1-598; P03135 1-533).
T1 construct: Genome-containing AAV2 particle; amounts counted as vector genomes (VG) by qPCR
The experiment in a line: column of AVR5eHC immobilised on gel; cell extract with AAV2-EGFP applied, elution at pH 2.5.

For test [2], the target named is T1, AAV2-EGFP (AAV vector of serotype 2 …). Nature of the test: mini column of immobilised protein loaded to breakthrough; AAV2-EGFP recovered by elution at pH 3.0, qPCR. Background: Quantitative PCR measures a nucleic acid by following its amplification.
For test [3], the target named is T2, VLP2 (virus-like particles of AAV2) (AAV2, UniProt P03135 1-735; P03135 1-598; P03135 1-533).
T2 construct: Empty AAV2 capsid; background says about 60 protein molecules, VP1:VP2:VP3 = 1:1:10; Immobilised on the ELISA plate
Nature of the test: ELISA on VLP2; A450 after pH 2.5 30°C 24 h / untreated.

For test [4], the target named is T2, VLP2 (virus-like particles of AAV2). The experiment in a line: ELISA on VLP2; A450 after 66.1°C 15 min / untreated. (In general: ELISA stands for enzyme-linked immunosorbent assay.)
For test [5] the target is unchanged. Nature of the test: ELISA on VLP2; A450 after pH 2.5 30°C 2 h / untreated.
Test [6] has the same target. The experiment in a line: ELISA on VLP2; binding after 43°C 15 min / untreated.
The target is the same in test [7]. Nature of the test: ELISA on VLP2; A450 after 50.3°C 15 min / untreated.
Test [8] has the same target. Nature of the test: ELISA on VLP2; A450 after pH 3.0 80.8°C 15 min / 25°C.
For test [9] the target is unchanged. The experiment in a line: ELISA on VLP2; A450 after pH 3.0 89.8°C 15 min / 25°C.
Test [10] shares this target. The experiment in a line: ELISA on VLP2; binding after pH 3.0 61.0°C 15 min / untreated.

T2 sequence (P03135 whole entry, chain 1 of 3): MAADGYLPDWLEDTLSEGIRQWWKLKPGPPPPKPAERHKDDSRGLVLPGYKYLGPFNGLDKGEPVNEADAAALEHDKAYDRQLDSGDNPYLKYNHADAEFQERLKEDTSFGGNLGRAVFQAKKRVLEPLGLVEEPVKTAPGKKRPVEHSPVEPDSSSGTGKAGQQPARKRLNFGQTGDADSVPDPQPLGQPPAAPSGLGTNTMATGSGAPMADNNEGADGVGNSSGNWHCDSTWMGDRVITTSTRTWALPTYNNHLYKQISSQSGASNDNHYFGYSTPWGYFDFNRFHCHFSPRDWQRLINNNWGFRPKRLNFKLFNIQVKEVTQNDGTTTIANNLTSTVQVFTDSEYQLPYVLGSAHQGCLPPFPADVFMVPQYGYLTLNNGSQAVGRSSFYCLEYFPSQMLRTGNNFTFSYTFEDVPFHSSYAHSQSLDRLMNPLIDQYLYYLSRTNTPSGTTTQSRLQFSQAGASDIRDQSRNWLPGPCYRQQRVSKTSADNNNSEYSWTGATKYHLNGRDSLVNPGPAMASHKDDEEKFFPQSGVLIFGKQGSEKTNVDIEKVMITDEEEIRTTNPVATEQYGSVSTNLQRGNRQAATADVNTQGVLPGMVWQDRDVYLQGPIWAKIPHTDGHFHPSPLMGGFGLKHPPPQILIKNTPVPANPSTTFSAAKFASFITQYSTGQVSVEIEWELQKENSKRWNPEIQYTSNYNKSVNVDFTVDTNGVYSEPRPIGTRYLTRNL
T2 sequence (P03135 139-735, tags left off, chain 2 of 3): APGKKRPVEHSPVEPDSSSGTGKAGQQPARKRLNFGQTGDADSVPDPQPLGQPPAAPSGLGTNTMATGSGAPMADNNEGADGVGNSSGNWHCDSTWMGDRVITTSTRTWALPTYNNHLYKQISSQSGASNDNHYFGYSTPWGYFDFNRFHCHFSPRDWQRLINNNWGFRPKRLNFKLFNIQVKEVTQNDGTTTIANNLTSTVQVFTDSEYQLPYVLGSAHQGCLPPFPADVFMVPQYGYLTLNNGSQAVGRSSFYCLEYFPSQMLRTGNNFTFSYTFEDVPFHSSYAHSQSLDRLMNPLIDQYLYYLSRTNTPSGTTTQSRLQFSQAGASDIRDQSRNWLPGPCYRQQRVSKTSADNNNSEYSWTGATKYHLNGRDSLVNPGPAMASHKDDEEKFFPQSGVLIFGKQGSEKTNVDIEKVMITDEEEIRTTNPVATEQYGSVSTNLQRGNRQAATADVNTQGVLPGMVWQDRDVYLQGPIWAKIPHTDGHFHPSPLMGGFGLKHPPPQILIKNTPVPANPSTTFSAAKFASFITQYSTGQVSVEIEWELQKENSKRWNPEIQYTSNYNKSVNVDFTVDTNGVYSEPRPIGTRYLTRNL
T2 sequence (P03135 203-735, chain 3 of 3): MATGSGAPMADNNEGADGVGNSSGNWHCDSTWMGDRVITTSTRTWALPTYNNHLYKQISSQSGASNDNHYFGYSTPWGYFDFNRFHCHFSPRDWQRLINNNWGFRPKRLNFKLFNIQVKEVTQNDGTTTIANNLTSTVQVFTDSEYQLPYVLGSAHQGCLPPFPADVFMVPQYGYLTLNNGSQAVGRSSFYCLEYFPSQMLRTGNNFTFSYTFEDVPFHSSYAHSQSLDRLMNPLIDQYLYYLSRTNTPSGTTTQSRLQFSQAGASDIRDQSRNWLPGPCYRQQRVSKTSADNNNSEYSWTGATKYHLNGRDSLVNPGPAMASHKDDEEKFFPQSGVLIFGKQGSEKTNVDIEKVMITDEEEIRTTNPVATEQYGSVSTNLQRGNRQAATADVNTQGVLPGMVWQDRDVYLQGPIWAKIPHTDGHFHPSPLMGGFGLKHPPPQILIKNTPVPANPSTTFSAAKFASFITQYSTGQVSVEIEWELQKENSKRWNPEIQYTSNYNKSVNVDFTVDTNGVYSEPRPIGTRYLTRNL
T1 sequence (P03135 whole entry, chain 1 of 3, the tested form may be a part): as the sequence (P03135 whole entry, chain 1 of 3) above
T1 sequence (P03135 139-735, tags left off, chain 2 of 3): as the sequence (P03135 139-735, tags left off, chain 2 of 3) above
T1 sequence (P03135 203-735, chain 3 of 3): as the sequence (P03135 203-735, chain 3 of 3) above

B1: AVR5eHC (AVR5e with a cysteine tag for immobilization at the C-terminus) (receptor)
chain: MGSAGESVQITLPKNEVQLNAYVLQEPPKGETCTYDWQLITHPRDYSGEMEGKHSQILKLSKLTPGLYEFKVIVEGQNAHSEGYVNVTVEPEPRKNRPPIAIVSPQFQEISLPTTSTVIDGSQSTDDDKIVQYHWEELKGPLREEKISEDTAILKLSKLVPGNYTFRLTVVDSDGATDSTTANLTVNKAVDHHHHHHCRNDTCG
notes: also called AVR5e-immobilized gel; AVR5e column
With B1, the binding result in test [1] is given as “binds”.

B2: AVR8gHC (protein having an immobilization tag at the C-terminus of AVR8g) (receptor)
chain: B1 chain with V8D, K53E, K62N
notes: Immobilised on gel; also called AVR8gHC-immobilized gel
As to B2, the “amount of AAV2-EGFP bound per 1 mL of protein-immobilized gel” value in [2] is 1.2e+13 VG/mL (gel).

B3: AVR3HC (protein having an immobilization tag at the C-terminus of AVR3) (receptor)
chain: B1 chain with E90K, D178N
notes: Immobilised on gel; also called AVR3HC-immobilized gel
As to B3, the “amount of AAV2-EGFP bound per 1 mL of protein-immobilized gel” value in test [2] is 2.8e+12 VG/mL (gel).

B4: wild-type AAV-binding protein (extracellular domains 1 and 2, PKD1 and PKD2, of KIAA0319L/AAVR, positions 312-500 of SEQ ID NO: 1, with His tag) (receptor)
chain: MGSAGESVQITLPKNEVQLNAYVLQEPPKGETYTYDWQLITHPRDYSGEMEGKHSQILKLSKLTPGLYEFKVIVEGQNAHGEGYVNVTVKPEPRKNRPPIAIVSPQFQEISLPTTSTVIDGSQSTDDDKIVQYHWEELKGPLREEKISEDTAILKLSKLVPGNYTFSLTVVDSDGATNSTTANLTVNKAVDHHHHHH
notes: Expressed in E. coli; tested as extract, culture supernatant or purified protein; also called wild-type AVR; product of pET-AAVRD2
Turning to B4, the “Residual activity [%]” value turned out to be 5.1% in test [3]; 9.6% in test [4]; 7.9% in test [5]; 43.4% in test [6]; 16.1% in test [7]. Also, the “amount of AAV2-EGFP bound per 1 mL of protein-immobilized gel” value in test [2] is 8.6e+09 VG/mL (gel).

B5: AVR7a (AAV-binding protein No. 93; AVR5e + Asn324Asp, Lys362Glu) (receptor)
chain: B4 chain with N15D, Y33C, K53E, G81S, K90E, S167R, N178D
Consider B5, for which the figures for the “Residual activity after heat treatment [%]” value in [8] and in [9] were 57% and 54%, respectively. Moreover, the “Residual activity [%]” value in test [10] stood at 50.7%.
